Source: US20140223606, “COMPOSITIONS AND METHODS COMPRISING SEQUENCES HAVING MEGANUCLEASE ACTIVITY” (PIONEER HI BRED INTERNATIONAL INC, published 2014)

Key:
Details in all cases: tags: NLS, 6xHis
MHP14(01) = target: T1, MHP14(01) (artificial); assay: cell_activity; yeast 37 C; 28 C: 0
T1 chain: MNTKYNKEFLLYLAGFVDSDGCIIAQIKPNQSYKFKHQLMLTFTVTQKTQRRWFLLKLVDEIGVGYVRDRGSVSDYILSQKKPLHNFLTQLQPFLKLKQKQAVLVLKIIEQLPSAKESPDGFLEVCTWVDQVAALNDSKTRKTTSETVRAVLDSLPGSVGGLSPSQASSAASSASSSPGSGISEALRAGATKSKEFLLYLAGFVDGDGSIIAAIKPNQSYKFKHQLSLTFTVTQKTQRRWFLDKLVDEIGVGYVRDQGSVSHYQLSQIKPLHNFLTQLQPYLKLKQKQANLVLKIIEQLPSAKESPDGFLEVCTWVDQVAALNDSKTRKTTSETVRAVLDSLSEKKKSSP
Experimental: (§1) A 3 mL culture of selective media (MP Biomedical) was inoculated with a single colony of the yeast screening strain and grown at 30° C. overnight. On the following day, a 50 ml YPD culture (MP Biomedical) was started with 2 ml of the overnight culture and grown at 30° C. overnight. On the following day, the cells were harvested by centrifugation at 4000 rpm. The cells were resuspended in 100 ml ice cold water and centrifuged again. The cells were then washed in 1.2 M sorbitol, followed by treatment with 2 ml of 10 mM Tris pH 8.0, 1 mM EDTA, 100 mM Lithium acetate, 10 mM DTT, 0.6M sorbitol for 30 minutes at 30° C. with shaking. The cells were recovered by centrifugation, washed in 40 ml 1.2M sorbitol and finally resuspended in 250 microliters of 1.2M sorbitol. 50 microliter aliquots were transferred to test tubes on ice. Up to 5 microliters of DNA (100-500 nanograms) were added. The suspension was transferred to a 0.2 cm electroporation cuvette, on ice. Electroporation was performed with a pulse charge at 1.5 kV, 200 ohms, 25 microF (pulse time of 5 milliseconds). 1 mL YPD media (MP Biomedical) was added and the cells were allowed to recover at 30° C. for 1-2 hr. The cells were centrifuged, resuspended in 100 uL 1M sorbitol and plated on selective media lacking leucine and containing 2% galactose. The resulting yeast colonies were incubated at various temperatures ranging from 22 to 37 degrees Celsius for 7-10 days. I-CreI and meganucleases derived from it have maximal activity at or above 37 degrees Celsius. Screening was performed at a range of temperatures from 22 to 37 degrees in order to observe increases in activity at lower temperatures which are relevant to certain biological systems (eg. plant cells, plant cell cultures, etc). At that time the red/white sectoring phenotype, indicative of meganuclease activity was observed. Colonies with increased white sectoring over the parental meganuclease (indicating colonies expressing a meganuclease with increased meganuclease activity), also referred to as “hits” and sometimes completely white, were isolated for further analysis.
(§2) A total of 15 MHP14 variants with increased activity were confirmed in the yeast system (as described in Example 6). Increased activity was observed across a range of temperatures: 28 degrees Celsius, 34 degrees Celsius and 37 degrees Celsius, as shown in Table 11.

MHP14(L14-03) = target: T2, MHP14(L14-03) (artificial); assay: cell_activity; yeast 37 C; 28 C: 0
T2 chain: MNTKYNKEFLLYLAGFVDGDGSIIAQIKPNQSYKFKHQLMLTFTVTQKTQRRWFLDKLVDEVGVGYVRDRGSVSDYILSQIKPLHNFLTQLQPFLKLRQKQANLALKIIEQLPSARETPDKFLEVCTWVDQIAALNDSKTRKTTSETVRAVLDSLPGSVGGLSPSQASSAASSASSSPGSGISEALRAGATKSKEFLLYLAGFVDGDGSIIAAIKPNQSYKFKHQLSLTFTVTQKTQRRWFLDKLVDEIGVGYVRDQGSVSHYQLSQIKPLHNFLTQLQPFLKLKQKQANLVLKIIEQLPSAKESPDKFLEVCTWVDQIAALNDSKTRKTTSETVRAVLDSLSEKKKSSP
Experimental: as §1, §2

MHP14(06) = target: T3, MHP14(06) (artificial); assay: cell_activity; yeast 37 C; 28 C: 0
T3 chain: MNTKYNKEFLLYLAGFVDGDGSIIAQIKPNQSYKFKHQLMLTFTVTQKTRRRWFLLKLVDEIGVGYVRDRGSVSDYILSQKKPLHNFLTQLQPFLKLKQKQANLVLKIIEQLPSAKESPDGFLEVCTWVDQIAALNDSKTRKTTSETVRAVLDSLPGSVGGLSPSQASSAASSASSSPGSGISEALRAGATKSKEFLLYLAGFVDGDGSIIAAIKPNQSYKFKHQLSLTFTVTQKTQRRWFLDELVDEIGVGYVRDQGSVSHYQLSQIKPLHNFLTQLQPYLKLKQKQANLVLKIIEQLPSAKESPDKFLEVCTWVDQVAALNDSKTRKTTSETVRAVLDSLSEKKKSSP
Experimental: as §1, §2

MHP14(L14-04) = target: T4, MHP14(L14-04) (artificial); assay: cell_activity; yeast 37 C; 28 C: 0
T4 chain: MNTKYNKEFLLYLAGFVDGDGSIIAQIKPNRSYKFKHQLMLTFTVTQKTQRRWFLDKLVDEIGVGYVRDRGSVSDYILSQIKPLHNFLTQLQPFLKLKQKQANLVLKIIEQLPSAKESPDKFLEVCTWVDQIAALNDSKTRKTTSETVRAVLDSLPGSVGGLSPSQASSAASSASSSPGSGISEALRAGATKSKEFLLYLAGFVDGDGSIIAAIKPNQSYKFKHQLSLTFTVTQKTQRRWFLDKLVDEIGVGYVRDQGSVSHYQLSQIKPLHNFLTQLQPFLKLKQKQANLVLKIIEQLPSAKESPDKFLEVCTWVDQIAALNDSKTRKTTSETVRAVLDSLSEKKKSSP
Experimental: as §1, §2

MHP14(08) = target: T5, MHP14(08) (artificial); assay: cell_activity; yeast 37 C; 28 C: 1
T5 chain: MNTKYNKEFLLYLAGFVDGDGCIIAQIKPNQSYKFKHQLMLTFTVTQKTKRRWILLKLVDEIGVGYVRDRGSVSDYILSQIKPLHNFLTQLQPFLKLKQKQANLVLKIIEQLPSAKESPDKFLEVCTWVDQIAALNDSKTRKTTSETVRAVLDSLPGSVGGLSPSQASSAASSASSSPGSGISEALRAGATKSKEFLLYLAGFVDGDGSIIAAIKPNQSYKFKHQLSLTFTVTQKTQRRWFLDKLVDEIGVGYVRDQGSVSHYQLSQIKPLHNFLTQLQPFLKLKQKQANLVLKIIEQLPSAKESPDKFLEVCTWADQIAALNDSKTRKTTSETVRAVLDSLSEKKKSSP
Experimental: A 3 mL culture of selective media (MP Biomedical) was inoculated with a single colony of the yeast screening strain and grown at 30° C. overnight. On the following day, a 50 ml YPD culture (MP Biomedical) was started with 2 ml of the overnight culture and grown at 30° C. overnight. On the following day, the cells were harvested by centrifugation at 4000 rpm. The cells were resuspended in 100 ml ice cold water and centrifuged again. The cells were then washed in 1.2 M sorbitol, followed by treatment with 2 ml of 10 mM Tris pH 8.0, 1 mM EDTA, 100 mM Lithium acetate, 10 mM DTT, 0.6M sorbitol for 30 minutes at 30° C. with shaking. The cells were recovered by centrifugation, washed in 40 ml 1.2M sorbitol and finally resuspended in 250 microliters of 1.2M sorbitol. 50 microliter aliquots were transferred to test tubes on ice. Up to 5 microliters of DNA (100-500 nanograms) were added. The suspension was transferred to a 0.2 cm electroporation cuvette, on ice. Electroporation was performed with a pulse charge at 1.5 kV, 200 ohms, 25 microF (pulse time of 5 milliseconds). 1 mL YPD media (MP Biomedical) was added and the cells were allowed to recover at 30° C. for 1-2 hr. The cells were centrifuged, resuspended in 100 uL 1M sorbitol and plated on selective media lacking leucine and containing 2% galactose. The resulting yeast colonies were incubated at various temperatures ranging from 22 to 37 degrees Celsius for 7-10 days. I-CreI and meganucleases derived from it have maximal activity at or above 37 degrees Celsius. Screening was performed at a range of temperatures from 22 to 37 degrees in order to observe increases in activity at lower temperatures which are relevant to certain biological systems (eg. plant cells, plant cell cultures, etc). At that time the red/white sectoring phenotype, indicative of meganuclease activity was observed. Colonies with increased white sectoring over the parental meganuclease (indicating colonies expressing a meganuclease with increased meganuclease activity), also referred to as “hits” and sometimes completely white, were isolated for further analysis. […]

B1: MHP14 recognition site (dsDNA)
DNA 1: CAAACAGATTCACGTCAGATTT
DNA 2: AAATCTGACGTGAATCTGTTTG
activity (MHP14(01)): 3 score 0-4
activity (MHP14(L14-03)): 3 score 0-4
activity (MHP14(06)): 3.5 score 0-4
activity (MHP14(L14-04)): 3 score 0-4
activity (MHP14(08)): 4 score 0-4
